Patent US20220227829A1 (SHANGHAI GP BIOTECH, published 2022)

T1: CD25 protein (from Example 2)
T1 chain: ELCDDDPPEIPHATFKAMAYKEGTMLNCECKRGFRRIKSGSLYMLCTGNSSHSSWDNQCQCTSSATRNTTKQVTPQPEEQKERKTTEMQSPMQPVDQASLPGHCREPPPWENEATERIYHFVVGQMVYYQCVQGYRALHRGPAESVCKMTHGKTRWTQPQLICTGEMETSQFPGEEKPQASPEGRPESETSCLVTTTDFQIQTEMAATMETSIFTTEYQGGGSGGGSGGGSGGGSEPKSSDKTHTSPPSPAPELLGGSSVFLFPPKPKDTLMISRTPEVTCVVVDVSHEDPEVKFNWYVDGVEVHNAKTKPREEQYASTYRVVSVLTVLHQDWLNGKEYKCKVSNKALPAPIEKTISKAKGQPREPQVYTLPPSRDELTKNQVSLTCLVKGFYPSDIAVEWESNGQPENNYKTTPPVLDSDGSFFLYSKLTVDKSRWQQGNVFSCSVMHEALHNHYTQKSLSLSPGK

T2: CD25 on the surface of CTLL-2 cells (mouse cytotoxic T lymphocyte cell line) (mouse, UniProt P01590 22-268)
T2 sequence (looked up): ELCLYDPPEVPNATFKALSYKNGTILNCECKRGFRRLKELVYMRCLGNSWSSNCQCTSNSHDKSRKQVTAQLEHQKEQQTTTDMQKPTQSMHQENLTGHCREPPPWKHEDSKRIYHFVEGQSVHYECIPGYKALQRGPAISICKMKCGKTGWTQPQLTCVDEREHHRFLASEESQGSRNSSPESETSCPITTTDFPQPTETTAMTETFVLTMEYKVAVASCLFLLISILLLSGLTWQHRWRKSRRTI

T3: CD25 on the surface of NK92 cells (human NK cell line) (human, UniProt P01589 22-272)
T3 sequence (looked up): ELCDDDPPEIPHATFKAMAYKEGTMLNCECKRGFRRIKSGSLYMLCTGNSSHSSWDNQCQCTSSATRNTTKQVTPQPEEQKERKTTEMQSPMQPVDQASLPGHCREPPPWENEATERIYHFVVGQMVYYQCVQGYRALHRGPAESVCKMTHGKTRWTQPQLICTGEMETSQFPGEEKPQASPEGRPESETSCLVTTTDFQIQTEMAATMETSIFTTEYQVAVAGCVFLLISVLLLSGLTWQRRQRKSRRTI


Experiments:
[1] = target: T1, CD25 protein (from Example 2); test: ELISA on coated CD25
Experimental: (§1) CD25 (from Example 2) was coated on a 96-well high adsorption microtiter plate (3590, Costar), washed and blocked. The sample to be tested was diluted to an appropriate concentration and added to wells.

[2] = target: T2, CD25 on the surface of CTLL-2 cells …; test: cell-based or functional assay
[3] = target: T3, CD25 on the surface of NK92 cells …; test: cell-based or functional assay
[4] = target: T1, CD25 protein (from Example 2); test: ELISA on coated CD25, sample at 1 ug/ml, relative to rhIL-2 = 100%
Experimental: as §1

[5] = target: T1, CD25 protein (from Example 2); test: ELISA on coated CD25, sample at 0.2 ug/ml, relative to rhIL-2 = 100%
Experimental: as §1

[6] = target: T1, CD25 protein (from Example 2); test: ELISA on coated CD25, sample at 0.04 ug/ml, relative to rhIL-2 = 100%
Experimental: as §1

| Binder | binding result [1] | EC50 (nM), CTLL-2 cell proliferation [2] | Potency relative to rhIL-2 (%), CTLL-2 cell proliferation [2] | EC50 (nM), NK92 cell proliferation [3] | Potency relative to rhIL-2 (%), NK92 cell proliferation [3] | Binding activity (%) [4] | Binding activity (%) [5] | Binding activity (%) [6] |
| --- | --- | --- | --- | --- | --- | --- | --- | --- |
| IL-2gm6 (T3A, M39N, K49N, A73T, D109N), HIS tag (ligand, Expressed in Expi293F cells; also called IL-2gm6-His) APASSSTKKTQLQLEHLLLDLQMILNGINNYKNPKLTRNLTFKFYMPKNATELKHLQCLEEELKPLEEVLNLTQSKNFHLRPRDLISNINVIVLELKGSETTFMCEYANETATIVEFLNRWITFAQSIISTLTHHHHHH | no binding (tested: 1 ug/ml) | 51.5 nM | 0.006% | 7.08 nM | 0.027% | 0.88% | 1.08% | 1.36% |
| IL-2gm12 (T3A, A73T, D109N), HIS tag (ligand, Expressed in Expi293F cells; also called IL-2gm12-His) APASSSTKKTQLQLEHLLLDLQMILNGINNYKNPKLTRMLTFKFYMPKKATELKHLQCLEEELKPLEEVLNLTQSKNFHLRPRDLISNINVIVLELKGSETTFMCEYANETATIVEFLNRWITFAQSIISTLTHHHHHH |  | 0.156 nM | 1.86% | 0.296 nM | 0.653% | 2.77% | 1.48% | 1.97% |
| IL-2gm13 (T3A, K49N, A73T, D109N), HIS tag (ligand, Expressed in Expi293F cells; also called IL-2gm13-His) APASSSTKKTQLQLEHLLLDLQMILNGINNYKNPKLTRMLTFKFYMPKNATELKHLQCLEEELKPLEEVLNLTQSKNFHLRPRDLISNINVIVLELKGSETTFMCEYANETATIVEFLNRWITFAQSIISTLTHHHHHH |  | 0.144 nM | 2.01% | 0.293 nM | 0.661% | 2.23% | 1.18% | 1.51% |
| IL-2gm2 (T3A, K49N), HIS tag (ligand, Expressed in Expi293F cells; also called IL-2gm2-His) APASSSTKKTQLQLEHLLLDLQMILNGINNYKNPKLTRMLTFKFYMPKNATELKHLQCLEEELKPLEEVLNLAQSKNFHLRPRDLISNINVIVLELKGSETTFMCEYADETATIVEFLNRWITFAQSIISTLTHHHHHH |  | 0.0638 nM | 4.55% | 0.112 nM | 1.72% | 31% | 31.3% | 16.6% |
| IL-2gm3 (T3A, A73T) or (T3A, A73S), HIS tag (ligand, also called IL-2gm3-His) APASSSTKKTQLQLEHLLLDLQMILNGINNYKNPKLTRMLTFKFYMPKKATELKHLQCLEEELKPLEEVLNLTQSKNFHLRPRDLISNINVIVLELKGSETTFMCEYADETATIVEFLNRWITFAQSIISTLTHHHHHH |  | 0.165 nM | 1.76% | 2.21 nM | 0.088% | 10.3% | 5.62% | 2.27% |
| IL-2gm1 (T3A, M39N), HIS tag (ligand, Expressed in Expi293F cells with a leader peptide; M39N is meant to make an N-glycosylation site; also called IL-2gm1-His) APASSSTKKTQLQLEHLLLDLQMILNGINNYKNPKLTRNLTFKFYMPKKATELKHLQCLEEELKPLEEVLNLAQSKNFHLRPRDLISNINVIVLELKGSETTFMCEYADETATIVEFLNRWITFAQSIISTLTHHHHHH | no binding (tested: 1 ug/ml) | 83.4 nM | 0.003% | 38.5 nM | 0.005% | 0.88% | 1.08% | 1.66% |
| IL-2gm8 (T3A, M39N, K49N), HIS tag (ligand, Expressed in Expi293F cells; also called IL-2gm8-His) APASSSTKKTQLQLEHLLLDLQMILNGINNYKNPKLTRNLTFKFYMPKNATELKHLQCLEEELKPLEEVLNLAQSKNFHLRPRDLISNINVIVLELKGSETTFMCEYADETATIVEFLNRWITFAQSIISTLTHHHHHH | no binding (tested: 1 ug/ml) | 8.84 nM | 0.033% | 8.91 nM | 0.022% | 0.74% | 0.99% | 1.51% |
| IL-2gm7 (T3A, D109N), HIS tag (ligand, Expressed in Expi293F cells; also called IL-2gm7-His) APASSSTKKTQLQLEHLLLDLQMILNGINNYKNPKLTRMLTFKFYMPKKATELKHLQCLEEELKPLEEVLNLAQSKNFHLRPRDLISNINVIVLELKGSETTFMCEYANETATIVEFLNRWITFAQSIISTLTHHHHHH |  | 0.365 nM | 0.794% | 0.557 nM | 0.347% | 8.1% | 2.96% | 1.82% |
| IL-2gm5 (T3A, M39N, K49N, A73T), HIS tag (ligand, Expressed in Expi293F cells; also called IL-2gm5-His) APASSSTKKTQLQLEHLLLDLQMILNGINNYKNPKLTRNLTFKFYMPKNATELKHLQCLEEELKPLEEVLNLTQSKNFHLRPRDLISNINVIVLELKGSETTFMCEYADETATIVEFLNRWITFAQSIISTLTHHHHHH | no binding (tested: 1 ug/ml) | 8.22 nM | 0.035% | 20.7 nM | 0.009% | 0.88% | 1.08% | 1.51% |
| IL-2gm11 (T3A, K49N, D109N), HIS tag (ligand, Expressed in Expi293F cells; also called IL-2gm11-His) APASSSTKKTQLQLEHLLLDLQMILNGINNYKNPKLTRMLTFKFYMPKNATELKHLQCLEEELKPLEEVLNLAQSKNFHLRPRDLISNINVIVLELKGSETTFMCEYANETATIVEFLNRWITFAQSIISTLTHHHHHH |  | 0.0349 nM | 8.31% | 0.28 nM | 0.69% | 12.5% | 5.03% | 2.42% |
| IL-2gm4 (T3A, K49N, A73T), HIS tag (ligand, Expressed in Expi293F cells; also called IL-2gm4-His) APASSSTKKTQLQLEHLLLDLQMILNGINNYKNPKLTRMLTFKFYMPKNATELKHLQCLEEELKPLEEVLNLTQSKNFHLRPRDLISNINVIVLELKGSETTFMCEYADETATIVEFLNRWITFAQSIISTLTHHHHHH |  | 0.0906 nM | 3.2% | 0.234 nM | 0.828% | 14.8% | 7.5% | 3.18% |
